Source: US20240076343A1

Columns and labels:
[1] = biological target: recombinant His-tagged cynomolgus PD-1 (Acro Biosystems) (cynomolgus) (UniProt B0LAJ3); assay: SPR Carterra LSA
[2] = biological target: recombinant His-tagged human PD-1 (Acro Biosystems) (human) (UniProt Q15116); assay: SPR Carterra LSA
Sequence of recombinant His-tagged human PD-1 (Acro Biosystems) (human) (Q15116 25-167 limits assumed): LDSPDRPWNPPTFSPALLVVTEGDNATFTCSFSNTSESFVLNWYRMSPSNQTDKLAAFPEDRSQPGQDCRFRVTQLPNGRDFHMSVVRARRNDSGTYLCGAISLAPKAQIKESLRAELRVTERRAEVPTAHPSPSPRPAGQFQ

Sequence of recombinant His-tagged cynomolgus PD-1 (Acro Biosystems) (cynomolgus) (B0LAJ3 entry or part of it limits assumed): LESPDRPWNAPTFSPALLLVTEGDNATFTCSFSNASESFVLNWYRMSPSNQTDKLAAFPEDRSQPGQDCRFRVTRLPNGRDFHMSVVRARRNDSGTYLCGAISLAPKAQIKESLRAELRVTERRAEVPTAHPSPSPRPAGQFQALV

Kd [1] [nM] | koff [1] [s⁻¹] | kon [1] [M⁻¹ s⁻¹] | Kd [2] [nM] | koff [2] [s⁻¹] | kon [2] [M⁻¹ s⁻¹] | Substance
1300 | 0.066 | 50000 | 86 | 0.0053 | 62000 | Anti-hPD-1 clone J105-mIgG1 (antibody)
0.575 | – | – | – | – | – | KEYTRUDA ® (pembrolizumab) (antibody)
6.4 | – | – | – | – | – | OPDIVO ® (nivolumab) (antibody)
85 | 0.0073 | 86000 | 19 | 0.0022 | 110000 | Anti-hPD-1 clone EH12.2H7-mIgG1 (antibody)
891 | 0.12 | 130000 | 10 | 0.0014 | 130000 | Anti-PD-1 clone MIH4 mIgG1 (antibody)
